Three substances from article PMC6082575 can be followed below.

For assay [1], the target named is C-X-C chemokine receptor type 4 (feline, on cultured hippocampal neurons) (cat (endogenous in cultured feline hippocampal neurons)) (UniProt P56498).
Assay [2] has as its target C-X-C chemokine receptor type 4 (mouse, on cultured hippocampal neurons) (mouse (endogenous in cultured hippocampal neurons)) (UniProt P70658).
For assay [3] the target is unchanged. The source holds these as a separate data set.

UniProt P70658, sequence (P70658 whole entry): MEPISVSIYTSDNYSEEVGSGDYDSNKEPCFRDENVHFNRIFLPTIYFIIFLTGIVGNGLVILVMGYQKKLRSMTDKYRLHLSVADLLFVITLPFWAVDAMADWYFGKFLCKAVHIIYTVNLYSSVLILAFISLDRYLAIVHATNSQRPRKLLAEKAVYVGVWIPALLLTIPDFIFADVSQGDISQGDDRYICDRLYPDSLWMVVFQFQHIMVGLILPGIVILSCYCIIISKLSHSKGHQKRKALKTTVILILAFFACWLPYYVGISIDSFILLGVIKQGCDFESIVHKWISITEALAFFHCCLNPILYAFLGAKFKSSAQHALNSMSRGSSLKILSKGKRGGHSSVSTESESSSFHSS
UniProt P56498, sequence (P56498 whole entry): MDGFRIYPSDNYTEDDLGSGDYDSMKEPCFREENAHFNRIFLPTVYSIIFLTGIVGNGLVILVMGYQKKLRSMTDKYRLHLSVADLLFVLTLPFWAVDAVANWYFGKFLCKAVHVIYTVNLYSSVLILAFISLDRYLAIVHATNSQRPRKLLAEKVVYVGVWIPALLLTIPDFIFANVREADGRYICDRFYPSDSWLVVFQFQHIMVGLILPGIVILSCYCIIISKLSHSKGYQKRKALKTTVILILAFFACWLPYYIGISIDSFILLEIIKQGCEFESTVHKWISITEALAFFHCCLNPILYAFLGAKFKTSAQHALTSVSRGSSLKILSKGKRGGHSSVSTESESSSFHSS

In the case of “FIV envelope glycoprotein gp95 (Fc fusion)”, the normalised total Ca2+ activity (GCaMP5 imaging) in cultured feline hippocampal neurons treated with 1-nM gp95 and 200-nM AMD3100 (CXCR4 antagonist) in assay [1] is 0.99 ΔF/Fmin. In addition, the normalised total Ca2+ activity (GCaMP5 imaging) in cultured mouse hippocampal neurons treated with 1-nM gp95 and 200-nM AMD3100 (CXCR4 antagonist) in assay [2] was 1.18 ΔF/Fmin.
On to “HIV-1 IIIB gp120 Recombinant Protein (from UniProt P04578 33-511) (ligand)”, for which the normalised total Ca2+ activity (GCaMP5 imaging) in cultured mouse hippocampal neurons treated with 1-nM gp120 (IIIB) and 200-nM AMD3100 (CXCR4 antagonist) in assay [3] is 0.85 ΔF/Fmin.
In the case of “stromal cell-derived factor-1 (from UniProt P48061 22-93) (ligand)”, the normalised total Ca2+ activity (GCaMP5 imaging) in cultured mouse hippocampal neurons treated with 20-nM SDF-1 and 200-nM AMD3100 (CXCR4 antagonist) in assay [3] is 1.26 ΔF/Fmin.
